In article PMC5893306 (Molecular pharmaceutics, 2018):
*1 amine or outer side, *2 acyl side, *3 side chain or, on linkers, in order; H or OH if unused. Bridges are numbered along the chain shown (N, C = ends). Roman numbers before positions name the chains, in order. [ ]: non-standard residue; d: D form. X1 = CC(C)CCC[C@@H](C)[C@H]1CC[C@H]2[C@@H]3CC=C4C[C@@H](OC(=O)NCCOCCOCCOCCOCCC(=O)NCCOCCOCCOCCOCCOCCOCCOCCOCCOCCOCCOCCOCCOCCOCCOCCOCCOCCOCCOCCOCCOCCOCCOCCOCCOCCOCCOCCOCCC(=O)NC(CCC(=O)[*:1])(CCC(=O)[*:2])CCC(=O)[*:3])CC[C@]4(C)[C@H]3CC[C@]12C; PEG4 = NCCOCCOCCOCCOCCC(=O)O

Legend:
[1] = Solubility in standard aqueous buffers; type: physicochemical; settings: standard aqueous buffers (e.g., PBS, HEPES) at physiological pH
[2] = Rat pharmacokinetics, IV and SC
[3] = Rat pharmacokinetics, IV and SC; type: in vivo, Sprague Dawley rats; settings: for increase of IV half-life / reduction of clearance / extension of apparent half-life upon SC dosing: rats, compared to PIE12-trimer; for increase of IV half-life / reduction of clearance: IV; for extension of apparent half-life upon SC dosing: based on terminal-phase elimination
[4] = Non-human primate pharmacokinetics, IV and SC; type: in vivo, cynomolgus monkeys; settings: male, cynomolgus monkey, plasma; for half-life: pH 7.4
[5] = male, rat, in vivo, iv, 1 mg/kg, pH 7.4
[6] = male, rat, in vivo, sc, 1 mg/kg
[7] = Sprague-Dawley, rat, plasma, iv
[8] = Sprague-Dawley, rat, plasma, sc
[9] = male, rat, in vivo, iv, 1 mg/kg

## CC(=O)N[C@H](Cc1c[nH]cn1)C(=O)N1CCC[C@@H]1C(=O)N[C@@H]1CSSC[C@H](C(=O)N[C@H](CCC(=O)O)C(=O)N[C@H](CC(C)C)C(=O)NCC(=O)N[C@H](CCCCNC(=O)CCOCCOCCOCCOCCNC(=O)CCOCC(COCCC(=O)NCCOCCOCCOCCOCCC(=O)NCCCC[C@@H](NC(=O)CNC(=O)[C@@H](CC(C)C)NC(=O)[C@@H](CCC(=O)O)NC(=O)[C@H]2CSSC[C@@H](NC(=O)[C@H]3CCCN3C(=O)[C@@H](Cc3c[nH]cn3)NC(C)=O)C(=O)N[C@H](CC(=O)O)C(=O)N[C@H](Cc3ccc(O)cc3)C(=O)N3CCC[C@@H]3C(=O)N[C@H](CCC(=O)O)C(=O)N[C@H](Cc3c[nH]c4ccccc34)C(=O)N[C@H](CCC(N)=O)C(=O)N[C@H](Cc3c[nH]c4ccccc34)C(=O)N[C@H](CC(C)C)C(=O)N2)C(N)=O)(COCCC(=O)NCCOCCOCCOCCOCCC(=O)NCCCC[C@@H](NC(=O)CNC(=O)[C@@H](CC(C)C)NC(=O)[C@@H](CCC(=O)O)NC(=O)[C@H]2CSSC[C@@H](NC(=O)[C@H]3CCCN3C(=O)[C@@H](Cc3c[nH]cn3)NC(C)=O)C(=O)N[C@H](CC(=O)O)C(=O)N[C@H](Cc3ccc(O)cc3)C(=O)N3CCC[C@@H]3C(=O)N[C@H](CCC(=O)O)C(=O)N[C@H](Cc3c[nH]c4ccccc34)C(=O)N[C@H](CCC(N)=O)C(=O)N[C@H](Cc3c[nH]c4ccccc34)C(=O)N[C@H](CC(C)C)C(=O)N2)C(N)=O)NC(=O)CCOCCOCCOCCOCCOCCOCCOCCOCCOCCOCCOCCOCCOCCOCCOCCOCCOCCOCCOCCOCCOCCOCCOCCOCCNC(=O)CCN2C(=O)CC(S[C@H]3CC[C@@]4(C)C(=CC[C@H]5[C@@H]6CC[C@H]([C@H](C)CCCC(C)C)[C@@]6(C)CC[C@@H]54)C3)C2=O)C(N)=O)NC(=O)[C@@H](CC(C)C)NC(=O)[C@@H](Cc2c[nH]c3ccccc23)NC(=O)[C@@H](CCC(N)=O)NC(=O)[C@@H](Cc2c[nH]c3ccccc23)NC(=O)[C@@H](CCC(=O)O)NC(=O)[C@H]2CCCN2C(=O)[C@@H](Cc2ccc(O)cc2)NC(=O)[C@@H](CC(=O)O)NC1=O (stereo partly drawn) [Chol-PIE12-trimer]
[1]
  solubility: ~ 40 mg/ml
[2]; [5]
  half-life: 1.6 h
[2]; [6]
  bioavailability: 51%
[2]; rat, in vivo, iv, 1 mg/kg
  C0: 4530 nM
[3]; [7]
  Vd: 0.134 L/kg
[3]; [8]
  Tmax: 4 h
  bioavailability: 73%
[3]
  increase of IV half-life: 3 fold
  reduction of clearance: 14-18 fold
  extension of apparent half-life upon SC dosing: ~ 3 fold

## CCCCCCCCCCCCCCCC(=O)N[C@H](CSC1CC(=O)N(CCC(=O)NCCOCCOCCOCCOCCOCCOCCOCCOCCOCCOCCOCCOCCOCCOCCOCCOCCOCCOCCOCCOCCOCCOCCOCCOCCC(=O)NC(COCCC(=O)NCCOCCOCCOCCOCCC(=O)NCCCC[C@@H](NC(=O)CNC(=O)[C@@H](CC(C)C)NC(=O)[C@@H](CCC(=O)O)NC(=O)[C@H]2CSSC[C@@H](NC(=O)[C@H]3CCCN3C(=O)[C@@H](Cc3c[nH]cn3)NC(C)=O)C(=O)N[C@H](CC(=O)O)C(=O)N[C@H](Cc3ccc(O)cc3)C(=O)N3CCC[C@@H]3C(=O)N[C@H](CCC(=O)O)C(=O)N[C@H](Cc3c[nH]c4ccccc34)C(=O)N[C@H](CCC(N)=O)C(=O)N[C@H](Cc3c[nH]c4ccccc34)C(=O)N[C@H](CC(C)C)C(=O)N2)C(N)=O)(COCCC(=O)NCCOCCOCCOCCOCCC(=O)NCCCC[C@@H](NC(=O)CNC(=O)[C@@H](CC(C)C)NC(=O)[C@@H](CCC(=O)O)NC(=O)[C@H]2CSSC[C@@H](NC(=O)[C@H]3CCCN3C(=O)[C@@H](Cc3c[nH]cn3)NC(C)=O)C(=O)N[C@H](CC(=O)O)C(=O)N[C@H](Cc3ccc(O)cc3)C(=O)N3CCC[C@@H]3C(=O)N[C@H](CCC(=O)O)C(=O)N[C@H](Cc3c[nH]c4ccccc34)C(=O)N[C@H](CCC(N)=O)C(=O)N[C@H](Cc3c[nH]c4ccccc34)C(=O)N[C@H](CC(C)C)C(=O)N2)C(N)=O)COCCC(=O)NCCOCCOCCOCCOCCC(=O)NCCCC[C@@H](NC(=O)CNC(=O)[C@@H](CC(C)C)NC(=O)[C@@H](CCC(=O)O)NC(=O)[C@H]2CSSC[C@@H](NC(=O)[C@H]3CCCN3C(=O)[C@@H](Cc3c[nH]cn3)NC(C)=O)C(=O)N[C@H](CC(=O)O)C(=O)N[C@H](Cc3ccc(O)cc3)C(=O)N3CCC[C@@H]3C(=O)N[C@H](CCC(=O)O)C(=O)N[C@H](Cc3c[nH]c4ccccc34)C(=O)N[C@H](CCC(N)=O)C(=O)N[C@H](Cc3c[nH]c4ccccc34)C(=O)N[C@H](CC(C)C)C(=O)N2)C(N)=O)C1=O)C(=O)O (stereo partly drawn) [Palm-PIE12-trimer]
[3]; [7]
  Vd: 0.144 L/kg
  half-life: 1.8 h
[3]; [8]
  Tmax: 1 h
  half-life: 2.2 h
[3]
  increase of IV half-life: 3 fold
  reduction of clearance: 14-18 fold
  extension of apparent half-life upon SC dosing: ~ 3 fold

## I: Ac-[dH][dP][dC][dD][dY][dP][dE][dW][dQ][dW][dL][dC][dE][dL]G[PEG4][dK]-NH2 / II: Ac-[dH][dP][dC][dD][dY][dP][dE][dW][dQ][dW][dL][dC][dE][dL]G[PEG4][dK]-NH2 / III: Ac-[dH][dP][dC][dD][dY][dP][dE][dW][dQ][dW][dL][dC][dE][dL]G[PEG4][dK]-NH2 (disulfide I:3-I:12, II:3-II:12, III:3-III:12; linker I:17-II:17-III:17 via X1) [CPT31]
[4]; iv, 1 mg/kg
  AUC(0-inf): 11.6 µM·h
  C0: 3110 nM
  Vd: 0.097 L/kg
  clearance: 0.158 mL/min/kg
  half-life: 7.4 h
[4]; sc, 3 mg/kg
  AUC(0-inf): 29.4 µM·h
  Cmax: 922 nM
  Tmax: 8 h
  bioavailability: 80%
  half-life: 18.8 h
[1]
  solubility: ~ 40 mg/ml
[2]; [9]
  AUC(0-inf): 3.84 µM·h
  C0: 2950 nM
  Vd: 0.134 L/kg
  clearance: 0.483 mL/min/kg
[2]; [5]
  half-life: 3.3 h
[2]; [6]
  AUC(0-inf): 2.11 µM·h
  Cmax: 261 nM
  Tmax: 2 h
  half-life: 5.4 h
[2]; rats, IV, compared to Chol-PIE12-trimer
  prolongation of IV half-life: 2 fold
[2]; rats, SC, compared to Chol-PIE12-trimer
  prolongation of SC half-life: 1.4 fold
